Data reported in paper PMC3717276, “Optimization and validation of mitochondria-based functional assay as a useful tool to identify BH3-like molecules selectively targeting anti-apoptotic Bcl-2 proteins” (BMC Biotechnology, 2013).

Assays:
[1] = target: Human Bcl-2 protein (isoform 2 construct), N-terminal 6xHis tagged recombinant protein (human); test: SPR; competitive solution binding: protein (20 nM) pre-incubated with tested BH3 peptide for at least 30 min, injected over immobilised biotin-Bim BH3 peptide; response at 30 s of dissociation
[2] = target: Human Bcl-2 protein (isoform 2 construct), N-terminal 6xHis tagged recombinant protein (human); test: fluorescence polarisation; competition: Mcl-1 (20 nM) or Bcl-2 (40 nM) pre-incubated with FAM-Bid (2 nM and 2.5 nM), tested BH3 peptide added, 2-3 h; 100 mM potassium phosphate, pH 7.5, 100 ug/ml bovine gamma globulin, 0.02% sodium azide; Ki calculated from IC50

| IC50 [1] [nM] | Ki [2] [nM] | Binder |
| --- | --- | --- |
| 4.37 | 7.1 | NLWAAQRYGRELRRMSDEFVDSFKKG [Bad BH3 peptide (residues 103-128)] |
| > 30000 | > 10000 | PAELEVECATQLRRFGDKLNFRQKLL [Noxa BH3 peptide (residues 18-43)] |
